# Tested on: Jurkat cells
# Assay: Tacrolimus dose response of FKBP13-AcGFP-mCherry constructs stably transduced into Jurkat cells, GFP MFI by flow cytometry
# Assay type: cell-based
# Conditions: tacrolimus, Jurkat cells stably transduced; Table 6
# Protocol: The regulation of AcGFP, from FKBP13-AcGFP-mCherry constructs, in Jurkat cells, was also studied. Jurkat Clone E6-1 cells were cultured in standard media (RPMI+GlutaMAX Supplement (Life Technologies, Carlsbad, CA Cat #61870127), Fetal Bovine Serum (FBS) (Life Technologies Cat #10-082-147)). Jurkat cells were transduced with lentivirus produced with each of FKBP-039, FKBP-040, FKBP-041, FKBP-042, FKBP-043, FKBP-044, or FKBP-045 constructs. Jurkat cells were transduced until they were 10-25% positive, as determined on day 5 post-transduction, by using mCherry as a transduction marker. […] The Geometric Mean Fluorescent Intensity (MFI) of GFP expression in mCherry+ cells was plotted and dose response curve fits were performed using Prism Software (San Diego, CA).
# FKBP-091 was used as a comparative construct.
# FIGS. 22-38 show the results of characterization of FKBP-160-292. […] FKBP-091 and FKBP-117 was used as a comparative control for FKBP-160-FKBP-255. FKBP-195 was used as a comparative control for FKBP-256-FKBP-275. FKBP-117, FPBP-195 and FKBP-251 were used as a comparative control for FKBP-276-FKBP-292.
# FKBP mutants were cloned in a manner to make a fusion protein with AcGFP in order to assess FKBP mutant regulation by using AcGFP expression as a readout. […] Further iterative FKBP mutants (FKBP-256-FKBP-292) were constructed from these initial combinatorial mutants to see if we could further improve FKBP DRD properties.
row,Molecule,Fold Change
1,"FKBP-128: FKBP13 DRD Q72R, Q84E, A117W, H53L; SEQ ID NO: 78 (protein, Description of sequence: FKBP13-AcGFP-mCherry Fusion; Construct Name: FKBP-128; FKBP13 DRD in Construct : FKBP13 (mutated to match FKBP12 active site Q72R Q84E A117W) (DRD H53L)) HCPIKSRKGDVLLMHYTGKLEDGTEFDSSLPRNQPFVFSLGTGEVIKGWDQGLLGMCEGEKRKLVIPSELGYGERGWPPKIPGGATLVFEVELLKIER",31.75
2,"FKBP-136: FKBP13 DRD Q72R, Q84E, A117W, S108M; SEQ ID NO: 86 (protein, Description of sequence: FKBP13-AcGFP-mCherry Fusion; Construct Name: FKBP-136; FKBP13 DRD in Construct : FKBP13 (mutated to match FKBP12 active site Q72R Q84E A117W) (DRD S108M)) HCPIKSRKGDVLHMHYTGKLEDGTEFDSSLPRNQPFVFSLGTGEVIKGWDQGLLGMCEGEKRKLVIPMELGYGERGWPPKIPGGATLVFEVELLKIER",22.46
3,"FKBP-131: FKBP13 DRD Q72R, Q84E, A117W, T126C; SEQ ID NO: 81 (protein, Description of sequence: FKBP13-AcGFP-mCherry Fusion; Construct Name: FKBP-131; FKBP13 DRD in Construct : FKBP13 (mutated to match FKBP12 active site Q72R Q84E A117W) (DRD T126C)) HCPIKSRKGDVLHMHYTGKLEDGTEFDSSLPRNQPFVFSLGTGEVIKGWDQGLLGMCEGEKRKLVIPSELGYGERGWPPKIPGGACLVFEVELLKIER",21.30
4,"FKBP-137: FKBP13 DRD Q72R, Q84E, A117W, P75L; SEQ ID NO: 87 (protein, Description of sequence: FKBP13-AcGFP-mCherry Fusion; Construct Name: FKBP-137; FKBP13 DRD in Construct : FKBP13 (mutated to match FKBP12 active site Q72R Q84E A117W) (DRD P75L)) HCPIKSRKGDVLHMHYTGKLEDGTEFDSSLPRNQLFVFSLGTGEVIKGWDQGLLGMCEGEKRKLVIPSELGYGERGWPPKIPGGATLVFEVELLKIER",45.79
5,"FKBP-141: FKBP13 DRD Q72R, Q84E, A117R, L52R; SEQ ID NO: 91 (protein, Description of sequence: FKBP13-AcGFP-mCherry Fusion; Construct Name: FKBP-141; FKBP13 DRD in Construct : FKBP13 (mutated to match FKBP12 active site Q72R Q84E A117R (DRD L52R))) HCPIKSRKGDVRHMHYTGKLEDGTEFDSSLPRNQPFVFSLGTGEVIKGWDQGLLGMCEGEKRKLVIPSELGYGERGRPPKIPGGATLVFEVELLKIER",1.00
6,"FKBP-139: FKBP13 DRD Q72R, Q84E, A117W, E130R; SEQ ID NO: 89 (protein, Description of sequence: FKBP13-AcGFP-mCherry Fusion; Construct Name: FKBP-139; FKBP13 DRD in Construct : FKBP13 (mutated to match FKBP12 active site Q72R Q84E A117W) (DRD E130R)) HCPIKSRKGDVLHMHYTGKLEDGTEFDSSLPRNQPFVFSLGTGEVIKGWDQGLLGMCEGEKRKLVIPSELGYGERGWPPKIPGGATLVFRVELLKIER",52.24
7,"FKBP-132: FKBP13 DRD Q72R, Q84E, A117W, G92Y; SEQ ID NO: 82 (protein, Description of sequence: FKBP13-AcGFP-mCherry Fusion; Construct Name: FKBP-132; FKBP13 DRD in Construct : FKBP13 (mutated to match FKBP12 active site Q72R Q84E A117W) (DRD G92Y)) HCPIKSRKGDVLHMHYTGKLEDGTEFDSSLPRNQPFVFSLGTGEVIKGWDQYLLGMCEGEKRKLVIPSELGYGERGWPPKIPGGATLVFEVELLKIER",16.27
8,"FKBP-130: FKBP13 DRD Q72R, Q84E, A117W, P107K; SEQ ID NO: 80 (protein, Description of sequence: FKBP13-AcGFP-mCherry Fusion; Construct Name: FKBP-130; FKBP13 DRD in Construct : FKBP13 (mutated to match FKBP12 active site Q72R Q84E A117W) (DRD P107K)) HCPIKSRKGDVLHMHYTGKLEDGTEFDSSLPRNQPFVFSLGTGEVIKGWDQGLLGMCEGEKRKLVIKSELGYGERGWPPKIPGGATLVFEVELLKIER",14.40
9,"FKBP-135: FKBP13 DRD Q72R, Q84E, A117W, E61Y; SEQ ID NO: 85 (protein, Description of sequence: FKBP13-AcGFP-mCherry Fusion; Construct Name: FKBP-135; FKBP13 DRD in Construct : FKBP13 (mutated to match FKBP12 active site Q72R Q84E A117W) (DRD E61Y)) HCPIKSRKGDVLHMHYTGKLYDGTEFDSSLPRNQPFVFSLGTGEVIKGWDQGLLGMCEGEKRKLVIPSELGYGERGWPPKIPGGATLVFEVELLKIER",25.52
10,"FKBP-138: FKBP13 DRD Q72R, Q84E, A117W, G124R; SEQ ID NO: 88 (protein, Description of sequence: FKBP13-AcGFP-mCherry Fusion; Construct Name: FKBP-138; FKBP13 DRD in Construct : FKBP13 (mutated to match FKBP12 active site Q72R Q84E A117W) (DRD G124R)) HCPIKSRKGDVLHMHYTGKLEDGTEFDSSLPRNQPFVFSLGTGEVIKGWDQGLLGMCEGEKRKLVIPSELGYGERGWPPKIPGRATLVFEVELLKIER",10.43
11,"FKBP-134: FKBP13 DRD Q72R, Q84E, A117W, H41R; SEQ ID NO: 84 (protein, Description of sequence: FKBP13-AcGFP-mCherry Fusion; Construct Name: FKBP-134; FKBP13 DRD in Construct : FKBP13 (mutated to match FKBP12 active site Q72R Q84E A117W) (DRD H41R)) RCPIKSRKGDVLHMHYTGKLEDGTEFDSSLPRNQPFVFSLGTGEVIKGWDQGLLGMCEGEKRKLVIPSELGYGERGWPPKIPGGATLVFEVELLKIER",15.64
12,"FKBP-129: FKBP13 DRD Q72R, Q84E, A117W, E98L; SEQ ID NO: 79 (protein, Description of sequence: FKBP13-AcGFP-mCherry Fusion; Construct Name: FKBP-129; FKBP13 DRD in Construct : FKBP13 (mutated to match FKBP12 active site Q72R Q84E A117W) (DRD E98L)) HCPIKSRKGDVLHMHYTGKLEDGTEFDSSLPRNQPFVFSLGTGEVIKGWDQGLLGMCLGEKRKLVIPSELGYGERGWPPKIPGGATLVFEVELLKIER",17.11
13,"FKBP-140: FKBP13 DRD Q72R, Q84E, A117W, K135Y; SEQ ID NO: 90 (protein, Description of sequence: FKBP13-AcGFP-mCherry Fusion; Construct Name: FKBP-140; FKBP13 DRD in Construct : FKBP13 (mutated to match FKBP12 active site Q72R Q84E A117W) (DRD K135Y)) HCPIKSRKGDVLHMHYTGKLEDGTEFDSSLPRNQPFVFSLGTGEVIKGWDQGLLGMCEGEKRKLVIPSELGYGERGWPPKIPGGATLVFEVELLYIER",28.70
14,"FKBP-133: FKBP13 DRD Q72R, Q84E, A117W, G83T; SEQ ID NO: 83 (protein, Description of sequence: FKBP13-AcGFP-mCherry Fusion; Construct Name: FKBP-133; FKBP13 DRD in Construct : FKBP13 (mutated to match FKBP12 active site Q72R Q84E A117W) (DRD G83T)) HCPIKSRKGDVLHMHYTGKLEDGTEFDSSLPRNQPFVFSLGTTEVIKGWDQGLLGMCEGEKRKLVIPSELGYGERGWPPKIPGGATLVFEVELLKIER",19.11

# From patent publication US20250186614A1, “COMPACT DRUG RESPONSIVE DOMAINS FOR REGULATION OF FUNCTION/ABUNDANCE AND DELIVERY OF POLYPEPTIDE PAYLOADS” (OBSIDIAN THERAPEUTICS, INC., priority 2022, published 2025)
